# Results as given in paper PMC2883556 (PLoS ONE, 2010).
# Legend:
# [1] = molecular target: T1, BoNT/B GST-fusion peptide fragment H5 (Clostridium botulinum Okra / Type B1, UniProt B1INP5); experiment: ELISA; settings: one partner purified
# T1 construct: Cloned in pGS-21a; not shown: GST, N-terminal, kept
# [2] = molecular target: T2, BoNT/B GST-fusion peptide fragment Hc (Clostridium botulinum strain Okra / …, UniProt B1INP5); experiment: ELISA; settings: one partner purified
# T2 construct: Cloned in pGS-21a; not shown: GST, N-terminal, kept
# [3] = molecular target: T3, Botulinum neurotoxin serotype C (Clostridium botulinum, UniProt P18640); experiment: ELISA; settings: both partners purified
# T3 construct: source: bought: Metabiologics
# [4] = molecular target: T4, BoNT/B GST-fusion peptide fragment L2 (Clostridium botulinum strain Okra / …, UniProt B1INP5); experiment: ELISA; settings: one partner purified
# T4 construct: Cloned in pGS-21a; not shown: GST, N-terminal, kept
# [5] = molecular target: T5, BoNT/B GST-fusion peptide fragment H4 (Clostridium botulinum strain Okra / …, UniProt B1INP5); experiment: ELISA; settings: one partner purified
# T5 construct: not shown: GST, N-terminal, kept
# [6] = molecular target: T6, Botulinum neurotoxin serotype D (Clostridium botulinum, UniProt P19321); experiment: ELISA; settings: both partners purified
# T6 construct: source: bought: Metabiologics
# [7] = molecular target: T7, BoNT/B GST-fusion peptide fragment H1 (Clostridium botulinum strain Okra / …, UniProt B1INP5); experiment: ELISA; settings: one partner purified
# T7 construct: not shown: GST, N-terminal, kept
# [8] = molecular target: T8, BoNT/B GST-fusion peptide fragment H2 (Clostridium botulinum strain Okra / …, UniProt B1INP5); experiment: ELISA; settings: one partner purified
# T8 construct: not shown: GST, N-terminal, kept
# [9] = molecular target: T9, BoNT/B GST-fusion peptide fragment H3 (Clostridium botulinum strain Okra / …, UniProt B1INP5); experiment: ELISA; settings: one partner purified
# T9 construct: Cloned in pGS-21a; not shown: GST, N-terminal, kept
# [10] = molecular target: T10, BoNT/B GST-fusion peptide fragment L1 (Clostridium botulinum strain Okra / …, UniProt B1INP5); experiment: ELISA; settings: one partner purified
# T10 construct: not shown: GST, N-terminal, kept
# [11] = molecular target: T11, BoNT/B GST-fusion peptide fragment Lc (Clostridium botulinum Okra / Type B1, UniProt B1INP5); experiment: ELISA; settings: one partner purified
# T11 construct: not shown: GST, N-terminal, kept
# [12] = molecular target: BoNT/B heavy chain (band of the reduced holotoxin) (Clostridium botulinum Okra / Type B1, UniProt B1INP5); experiment: far-Western, overlay or dot blot; settings: both partners purified
# [13] = molecular target: T9, BoNT/B GST-fusion peptide fragment H3; experiment: ELISA; settings: one partner purified; remark: listed apart in the source
Binder,binding result [1],binding result [2],binding result [3],binding result [4],binding result [5],binding result [6],binding result [7],binding result [8],binding result [9],binding result [10],binding result [11],binding result [12],binding result [13]
"monoclonal antibody MCS6-27 (antibody, V domains shown, also called mAb MCS6-27) VH: EVQLEQSGPGLVKPSQSLSLTCTVTGYSITNDYAWNWIRQFPGNKLEWMGYINYSGTTSYNPSLKSRISITRDTSKNQFFLQFNSVTTEDTATYYCARSPLAYWGQGTLVTVSA VL: DIVLTQTPASLSVSVGETVTITCRASENIYSHLAWYQQKQGKSPQLLVYTATNLADGVPSRFSGRGSGTQYSLKINSLQSEDFGIYFCQHFWGTPWTFGGGTKLEIK",binds,binds,no binding (tested: 10 µg/mL),no binding,no binding,no binding (tested: 10 µg/mL),no binding,no binding,no binding,no binding,no binding,–,–
"monoclonal antibody F29-40 (antibody, V domains shown, also called mAb F29-40) VH: EVQLEESGPELVKPGTSVKISCKASGYSFTGYIINWVMQSQGKTPEWIGRINPNNGDTSYNQKFKGKATLTVDRSSSTAHMEVRSLTSEDSAVYYCARTGFGYWGQGTLVTVSA VL: DIVITQTPASLAVSLGQRATISCRASESINYYGTNLLQWYQQKPGQPPKLLIYAASNVESGVPARFSGSGSGTDFSLNIHPVEEDDIAMYFCQQSRKVPFTFGSGTRLEIK",binds,binds,no binding (tested: 10 µg/mL),no binding,no binding,no binding (tested: 10 µg/mL),no binding,no binding,–,no binding,no binding,binds,binds
